Test results: article PMC2646509

Target: T1, PrfA L140F L140F (Listeria monocytogenes (NF-L1166)) (UniProt P22262)
T1 sequence: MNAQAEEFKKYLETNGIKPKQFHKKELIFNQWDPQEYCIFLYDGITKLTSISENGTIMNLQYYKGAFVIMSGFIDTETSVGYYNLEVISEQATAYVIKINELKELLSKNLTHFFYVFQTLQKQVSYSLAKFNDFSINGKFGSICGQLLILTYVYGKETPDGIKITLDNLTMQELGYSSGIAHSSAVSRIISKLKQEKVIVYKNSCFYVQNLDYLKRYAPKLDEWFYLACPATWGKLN
Test: EMSA

GATGCTTCTAAAAAAGTTGCTGAAGCTTGGGAAGCAGTTGGGGTTAACTGATTAACAAATGTTAGAGAAAAATTAATTCTCCAAGTGATATTCTTAAAATAATTCATGAATA (double strand) [actA promoter]
binding: binds
